Read-outs that look alike come from different tables or passages of the source.
Legend:
[1] = biological target: BaL.01 Env trimeric spikes on pseudotyped viruses (HIV-1 BaL.01)
[2] = biological target: BaL.01 Env trimeric spikes on pseudotyped viruses (HIV-1 BaL.01); remark: listed apart in the source
[3] = biological target: BaL.01 Env trimeric spikes on pseudotyped viruses (HIV-1 BaL.01); remark: listed apart in the source

| Substance | EC50 of virolysis (p24 release from HIV-1 BaL.01 pseudovirus, sandwich ELISA) [1] | IC50 of inhibition of HIV-1 BaL.01 pseudovirus infection of HOS.T4.R5 cells [1] | EC50 of virolysis (p24 release from HIV-1 BaL.01 pseudovirus, sandwich ELISA) [2] | IC50 of inhibition of HIV-1 BaL.01 pseudovirus infection of HOS.T4.R5 cells [3] |
| --- | --- | --- | --- | --- |
| DAVEI-L4(ΔCRAC) | 28.3 nM | 1.1 nM |  |  |
| DAVEI-L4(ΔCRAC)-W3,7,9,15A |  |  | 122 nM | 0.78 nM |
| DAVEI-L4(ΔCRAC)-W7,9,15A |  |  | 43.1 nM | 0.36 nM |
| DAVEI-L4(ΔCRAC)W9,15A |  |  | 49.7 nM | 0.45 nM |
| DAVEI-L4(ΔCRAC)W15A |  |  | 46.8 nM | 0.4 nM |
| DAVEI-L4(ΔMPER) |  | 1.4 nM |  |  |
